This series concerns the molecule itself. Description: X-ray crystal structure at 2.15 Å, space group C2, 3 chains per asymmetric unit; homodimer seen in the crystal. How it is done: Crystals of mutant cinnamic acid decarboxylase FDC (K190E) in complex with 3-hydroxyl cinnamic acid were grown by the vapor diffusion method. Commercial screening Kit (Hampton research, Qiagen, Emerald Biosystems) was used for screening crystallization conditions. Different volume ratio of protein and reservoir were tested for crystallization. Hanging drops containing a 1:1, 1:2, or 2:1 mixture of protein (5-10 mg/ml) and crystallization buffer (10% (w/v) polyethylene glycol (PEG) 6000, 5% (w/v) 2-methyl-2,4-pantanediol (MPD), 0.1 M HEPES, pH 7.5, and 2 mM DTT) were maintained at 4° C. In particular, well diffracted crystals were grown in 7-11% (w/v) polyethylene glycol (PEG) 6000, 3% (w/v) 2-methyl-2,4-pantanediol (MPD), pH 6.5-7.5, and 2 mM DTT with 0.1% 3-hydroxyl cinnamic acid. Crystal conditions were further improved by adding 0.01M MnCl2, 0.5% (w/v) polyvinylpyrrolidone K15, 0.2M NDSB-201 or 2% (w/v) benzamidine hydrochloride as an additive.
The FDC(K190E) crystals grew in space group C2 with 3 chains per asymmetric unit. Unit cell dimensions for the crystal were a=249.51 Å, b=120.67 Å, c=158.49 Å, β=94.9°; Diffraction data were collected from single crystals mounted in a cryoloop and flash frozen in a nitrogen stream at 100 K and reduced with the HKL suite. Crystals were diffracted at 2.15 Å resolution. […]

B1: mutant cinnamic acid decarboxylase FDC (K190E) (enzyme)
chain: MRKLNPALEFRDFIQVLKDEDDLIEITEEIDPNLEVGAIMRKAYESHLPAPLFKNLKGASKDLFSILGCPAGLRSKEKGDHGRIAHHLGLDPKTTIKEIIDYLLECKEKEPLPPITVPVSSAPCKTHILSEEKIHLQSLPTPYLHVSDGGKYLQTYGMWILQTPDKKWTNWSIARGMVVDDKHITGLVIEPQHIRQIADSWAAIGKANEIPFALCFGVPPAAILVSSMPIPEGVSESDYVGAILGESVPVVKCETNDLMVPATSEMVFEGTLSLTDTHLEGPFGEMHGYVFKSQGHPCPLYTVKAMSYRDNAILPVSNPGLCTDETHTLIGSLVATEAKELAIESGLPILDAFMPYEAQALWLILKVDLKGLQALKTTPEEFCKKVGDIYFRTKVGFIVHEIILVADDIDIFNFKEVIWAYVTRHTPVADQMAFDDVTSFPLAPFVSQSSRSKTMKGGKCVTNCIFRQQYERSFDYITCNFEKGYPKGLVDKVNENWKRYGYK
notes: It was purified by the same process as FDC1: an N-terminal 6-His/SUMO tag was cleaved off by hydrolase; It was crystallised in complex with the small molecule 3-hydroxyl cinnamic acid; also called FDC1 K190E mutant; FDC mutant (K190E)
In the case of B1, the binding result is “binds”.

(Values after patent publication US20150337336A1 (PHYTOGENE, published 2015).)
